Legend:
[1] = molecular target: 203A205G thrombin (glycine at position 203 in B chain substituted by alanine, serine at position 205 … (human, UniProt P00734 315-363; P00734 364-622); assay: IAsys biosensor, FAST FIT program; derivative immobilized
Procedure: (§1) Subsequently, 0.2 ml of 1 M ethanol amine (pH 8) was added thereto to perform a blocking treatment.

[2] = molecular target: 77E203A205G thrombin (lysine 77 to glutamic acid, glycine 203 to alanine, serine 205 to glycine in B chain) (human, UniProt P00734 315-363; P00734 364-622); assay: as above
Procedure: as §1

- Kd [1]: 10.8 nM
- Kd [2]: 190 nM
B1: fibrinogen (other)
chain 1: ADSGEGDFLAEGGGVRGPRVVERHQSACKDSDWPFCSDEDWNYKCPSGCRMKGLIDEVNQDFTNRINKLKNSLFEYQKNNKDSHSLTTNIMEILRGDFSSANNRDNTYNRVSEDLRSRIEVLKRKVIEKVQHIQLLQKNVRAQLVDMKRLEVDIDIKIRSCRGSCSRALAREVDLKDYEDQQKQLEQVIAKDLLPSRDRQHLPLIKMKPVPDLVPGNFKSQLQKVPPEWKALTDMPQMRMELERPGGNEITRGGSTSYGTGSETESPRNPSSAGSWNSGSSGPGSTGNRNPGSSGTGGTATWKPGSSGPGSTGSWNSGSSGTGSTGNQNPGSPRPGSTGTWNPGSSERGSAGHWTSESSVSGSTGQWHSESGSFRPDSPGSGNARPNNPDWGTFEEVSGNVSPGTRREYHTEKLVTSKGDKELRTGKEKVTSGSTTTTRRSCSKTVTKTVIGPDGHKEVTKEVVTSEDGSDCPEAMDLGTLSGIGTLDGFRHRHPDEAAFFDTASTGKTFPGFFSPMLGEFVSETESRGSESGIFTNTKESSSHHPGIAEFPSRGKSSSYSKQFTSSTSYNRGDSTFESKSYKMADEAGSEADHEGTHSTKRGHAKSRPV
chain 2: QGVNDNEEGFFSARGHRPLDKKREEAPSLRPAPPPISGGGYRARPAKAAATQKKVERKAPDAGGCLHADPDLGVLCPTGCQLQEALLQQERPIRNSVDELNNNVEAVSQTSSSSFQYMYLLKDLWQKRQKQVKDNENVVNEYSSELEKHQLYIDETVNSNIPTNLRVLRSILENLRSKIQKLESDVSAQMEYCRTPCTVSCNIPVVSGKECEEIIRKGGETSEMYLIQPDSSVKPYRVYCDMNTENGGWTVIQNRQDGSVDFGRKWDPYKQGFGNVATNTDGKNYCGLPGEYWLGNDKISQLTRMGPTELLIEMEDWKGDKVKAHYGGFTVQNEANKYQISVNKYRGTAGNALMDGASQLMGENRTMTIHNGMFFSTYDRDNDGWLTSDPRKQCSKEDGGGWWYNRCHAANPNGRYYWGGQYTWDMAKHGTDDGVVWMNWKGSWYSMRKMSMKIRPFFPQQ
chain 3: YVATRDNCCILDERFGSYCPTTCGIADFLSTYQTKVDKDLQSLEDILHQVENKTSEVKQLIKAIQLTYNPDESSKPNMIDAATLKSRKMLEEIMKYEASILTHDSSIRYLQEIYNSNNQKIVNLKEKVAQLEAQCQEPCKDTVQIHDITGKDCQDIANKGAKQSGLYFIKPLKANQQFLVYCEIDGSGNGWTVFQKRLDGSVDFKKNWIQYKEGFGHLSPTGTTEFWLGNEKIHLISTQSAIPYALRVELEDWNGRTSTADYAMFKVGPEADKYRLTYAYFAGGDAGDAFDGFDFGDDPSDKFFTSHNGMQFSTWDNDNDKFEGNCAEQDGSGWWMNKCHAGHLNGVYYQGGTYSKASTPNGYDNGIIWATWKTRWYSMKKTTMKIIPFNRLTIGEGQQHHLGGAKQAGDV
notes: also called Fbgn

From patent US20070282095A1 (published 2007)
